From patent publication US20220289816A1, “IMMUNOTHERAPY WITH B*07 RESTRICTED PEPTIDES AND COMBINATION OF PEPTIDES AGAINST CANCERS AND RELATED METHODS” (Immatics Biotechnologies GmbH, priority 2018, published 2022)

Biological target: HLA-B*07 (Homo sapiens, UniProt P01889)
Experiment: MHC binding assay (UV-ligand exchange, ELISA of stabilized MHC complexes)
Conditions: peptide exchange yield on HLA-B*07, UV-ligand exchange
Text: Candidate peptides for T cell based therapies according to the present invention were further tested for their MHC binding capacity (affinity). The individual peptide-MHC complexes were produced by UV-ligand exchange, where a UV-sensitive peptide is cleaved upon UV-irradiation and exchanged with the peptide of interest as analyzed. Only peptide candidates that can effectively bind and stabilize the peptide-receptive MHC molecules prevent dissociation of the MHC complexes. To determine the yield of the exchange reaction, an ELISA was performed based on the detection of the light chain (β2m) of stabilized MHC complexes. The assay was performed as generally described in Rodenko et al. (Rodenko et al., 2006)
96 well MAXISorp plates (NUNC) were coated over night with 2 ug/ml streptavidin in PBS at room temperature, washed 4× and blocked for 1 h at 37° C. in 2% BSA containing blocking buffer. […] Peptide-MHC monomers of the UV-exchange reaction were diluted 100-fold in blocking buffer. Samples were incubated for 1 h at 37° C., washed four times, incubated with 2 ug/ml HRP conjugated anti-[…] for 1 h at 37° C., washed again and detected with TMB solution that is stopped with […]. Absorption was measured at 450 nm. Candidate peptides that show a high exchange yield (preferably higher than 50%, most preferred higher than 75%) are generally preferred for a generation and production of antibodies or fragments thereof, and/or T cell receptors or fragments thereof, as they show sufficient avidity to the MHC molecules and prevent dissociation of the MHC complexes.

| Substance | Peptide exchange |
| --- | --- |
| 462 (MPLLADVRL; listed as Homo sapiens) [compound 462] | ++++ (>75% = ++++) |
| 37 (LPPPRALTL; listed as Homo sapiens) [compound 37] | +++ (>50 = +++) |
| 118 (NPERHKPSF; listed as Homo sapiens) [compound 118] | +++ (>50 = +++) |
| 451 (VPILPLNHAL; listed as Homo sapiens) [compound 451] | ++++ (>75% = ++++) |
| 314 (IALMKLAGPL; listed as Homo sapiens) [compound 314] | ++ (>20% = ++) |
| 325 (SPRSNPVRL; listed as Homo sapiens) [compound 325] | ++++ (>75% = ++++) |
| 499 (QPVLPSPAC; listed as Homo sapiens) [compound 499] | ++++ (>75% = ++++) |
| 471 (LPLLAGTLLL; listed as Homo sapiens) [compound 471] | ++ (>20% = ++) |
| 204 (FPYSGDKILV; listed as Homo sapiens) [compound 204] | +++ (>50 = +++) |
| 382 (RPGPQRTTSV; listed as Homo sapiens) [compound 382] | ++++ (>75% = ++++) |
| 203 (KPRGPIDI; listed as Homo sapiens) [compound 203] | ++ (>20% = ++) |
| 305 (AASPVGSAL; listed as Homo sapiens) [compound 305] | +++ (>50 = +++) |
| 477 (NPVPVITWYKDNRL; listed as Homo sapiens) [compound 477] | ++++ (>75% = ++++) |
| 123 (RPRLRDLPAL; listed as Homo sapiens) [compound 123] | +++ (>50 = +++) |
| 484 (LPASAEPKGTM; listed as Homo sapiens) [compound 484] | ++ (>20% = ++) |
| 474 (VPKADLLTL; listed as Homo sapiens) [compound 474] | ++++ (>75% = ++++) |
| 248 (KPYDGIPAS; listed as Homo sapiens) [compound 248] | +++ (>50 = +++) |

| Substance | Peptide exchange |
| --- | --- |
| 313 (VPLSSYVSI; listed as Homo sapiens) [compound 313] | ++++ (>75% = ++++) |
| 103 (REPIMKADML; listed as Homo sapiens) [compound 103] | ++ (>20% = ++) |
| 466 (SPMEAILVSRL; listed as Homo sapiens) [compound 466] | ++++ (>75% = ++++) |
| 331 (SPDSAILKL; listed as Homo sapiens) [compound 331] | +++ (>50 = +++) |
| 330 (RPFSAIAEL; listed as Homo sapiens) [compound 330] | ++++ (>75% = ++++) |
| 132 (LPRLPVGSLV; listed as Homo sapiens) [compound 132] | ++++ (>75% = ++++) |
| 458 (VPIPTHYFVVL; listed as Homo sapiens) [compound 458] | ++++ (>75% = ++++) |
| 173 (VIINNPISL; listed as Homo sapiens) [compound 173] | ++ (>20% = ++) |
| 131 (MPFRNIRSIL; listed as Homo sapiens) [compound 131] | +++ (>50 = +++) |
| 93 (SVAIAHGVF; listed as Homo sapiens) [compound 93] | ++++ (>75% = ++++) |
| 42 (APLKMLAL; listed as Homo sapiens) [compound 42] | ++++ (>75% = ++++) |
| 149 (SPSSVFTSK; listed as Homo sapiens) [compound 149] | +++ (>50 = +++) |
| 317 (MPYNSAHHCVV; listed as Homo sapiens) [compound 317] | ++++ (>75% = ++++) |
| 288 (LHAMNSLSAM; listed as Homo sapiens) [compound 288] | +++ (>50 = +++) |
| 298 (RVLLRWISL; listed as Homo sapiens) [compound 298] | +++ (>50 = +++) |
| 339 (GPQRTTSV; listed as Homo sapiens) [compound 339] | +++ (>50 = +++) |
